Experimental data published in a protein production outcome set (Wang et al. 2014).

Assay: label from the status in PepcDB records
With “MTCEGRRTMTQPISLGHRMSLIDLYDLRMPQRTGTYVLHEENLAIIETGPSPSVPHLLAGLKALHIDPADIRYIIVTHIHLDHAGGVGVLLEHCPNATVIVHPKGKRHLADPSRLIAGAKAVYGEQFDALFDPIVPVPEERLLVKEDGETLVLSAERTLTFYDTPGHANHHFSIYDSYSGGVFTGDTIGVFYPQLQEAGLAFCLPSTSPNQFNPEAMKQSAERLEKLNPTRIYFGHFGALDQPEEAFRQLRFWLPKFVAAGKEVIARHPEAPAAEQAKAVTKLLHNDITAFLNECSIPASSPVYKVIELDLQVCAMGIIDYWRKQRLEHHHHHH” the protein production was “not failed”. In the case of “MTDAPLGRSAVYTILTTGYVGSTGPGVAATVSYVADGGRHVVFDPGMVASRDHILGPLAELGLGPDDITDVVLSHHHPDNTMNVGLFGRATVHDHKVEYLGDQWRNRDAEGYELTPSLRLIRTPGHSLEDITLLAGTDTGVVAFAGDLWWHSDGPADDPVAPDREVLRASRLRVLAAADLIVPGHGSPFKADITAPRLEHHHHHH”, the protein production is reported as “not failed”. In the case of “MTDATAEQSVTADADDKPEPYNGLPGAFPYAFRATDSLLFKAYVPVALLLSVAITLVFSFGLITQLAETGSVRGGTFTFSRSFFLFVGLLLVAPLLAPVLSVARRHRRTASSVAYDRALALSAFLFIGSIYLALLTSAPAELREPTQSAVVGFFYSLPPIAGVVPPMLATLGIYLTHRLLK”, the protein production is reported as “failed”. In the case of “MTDDLLKPNRPHPLFKLATELGPLLVFFIVNAKFHLFAATGAFMVAVVAAVIASYVVTRHVPVMALVTAVVVLVFGTLTLVLHDETFIKMKPTIVYSLFGAVLAGGLLFGRSFIAIMFDQVFNLTAAGWRKLTLRWALFFFAMALLNEAVWRTQSTDFWVNFKVFGVVPLTMLFALLQMPLTKRYAAEPATLEQSAADEGDVSGR”, the protein production is reported as “not failed”. For “MTDESDALCATEKEIMHATHRALVNSGYAELSISRISDELDKAKSTIYHYYDSKDALLLRFLRFTVDRFEATINTSIGDNPKEDLNHIISTLLPCQLPEEKRQLHSVLVTLSPQALERAVFREQFTEIDTRLATIIEKTVRRGVDADVFRDVDPTHAAEHILATIKGTMYSRLTTNREAATAAAKASLFSYIDSHLIS”, the protein production was “failed”. For “MTDEVSVLFVDFLLEWLEMMRTRVRETTYASYNSGIRQSIIPYFMDKKLTLTDIEENPKYLQDFYQHELSKGLSPNSVLRRHANIRKALQHAFHLGLIKSNPADRIERPKKQDYTALEHHHHHH”, the protein production was “not failed”. In the case of “MTDGEAVSAAAGPGAEGPPGPVGHWAPGSHILWRYRENGGPHVHIARPVTVVRDDADLLAVWLAPGTECVKPVLADGTPVHLEPLATRYTKPRTVQRDQWFGTGVLKLARPGEAWSVWLFWDPGWRFKNWYVNLERPLTRWEGGVDSEDHFLDISVHPDRTWHWRDEDEFAQALRDGLMDPASAGRVRRAGRSAVAEIRAWGSPFADGWEHWRPDPAWPVPSLPGDWDRTPAHVSS”, the protein production is reported as “not failed”. For “MTDNPFATPTAPVQPPAREVPATTQPYAFIAVLALVTCLSFAVSLGIQWYNDIGEIRQRFSEHLQLMAPHWFTGLVFYAAANLLVLHAYREKRQLVEFRPLALLLIGYGLLNLVCGMLAGIGLAPLTLPFYQWVTAQSSYGVWLMAFNEAMSWVYLLLGSLLPLGLVLLGSRVNSPRLAEGEEARVAAWQVALGAALCFATLCFKLMQFLPYALLRYDEPWLYGLYLSGVALPAALLFGAVCTRLPARLQRFAAGRALLLAVVAMLLWSVALLAVGGGLALLMILGLAPAGIGYTLLVALLGVGLLALLWPIGRLATRWCYADQLAA”, the protein production was “failed”. For “MTDREWPEYPNQSGGETVTGPESAQEEAASERGWEADPPSPASEECQSEEGSNWERTAQEAEEEVPGGQRGEDLGTLGQAQELQEAAPFFQEEGSEPSQTTETSGWKPGMESSEDSREEPDLPAESPESSGQELQEAAALSPEETQVPFQTENAWEPGAERPENPDGGESQEPVAERPSAQPYDQSPAFSRPAPQAPPPVWNPGWQASYRQAPQNYPYGQGQYQGGWHPQQRQVPPPYYGGTPYQAPNPYQNQAPYGYPGQAARNQGQPGYQESRWYPQQPAQPARTGSVPPPSQPPQKEAGELPDAKPPEKKRMNKKTKAFLWVIGAVLVLLGAAMVLYSVGLTSGWFGGETAEPPQASSSTPAPEDDQKLLEIEEIPQDGMMTPNQVYEKVKHSVVAVVTYGQGSDLTDSPISSGSGIVFSEDGYIVTNSHVIGDSNQYPVKMVFTGQDENEEDQEYPAQIVGYDKRTDIAVLKIDAAGLTPAEFADSDQLKVGDTVLSLGNPGVAGENFTNTLTKGMVSAVNRTVTMSSINMQYIQTDAAINPGSSGGALLNLYGQVVGINAAKITTTEIEGICFAIPTNIAKDVINDIVKNGYVSDRVRLGVTIRGLSSYEAEMYNVPQGLVIVGFSSDSEIPSKGAEIGDIITAINGVNTTSSNTLYNELEKFKAGEKVKLTIYRQASGSQRARTFEIEVTLLEARGETQSAVTPTPEAP”, the protein production was “failed”. For “MTDTNVLANSATDNQETTHFGFETVRKDEKVHKVAQVFHSVAAKYDIMNDLMSGGIHRLWKRFTIDCSGARPGQRILDLGGGTGDLTAKFSRIVGEKGHVILADINNSMLNVGRDKLRDSGVVGNVHYVQANAEELPFPDNYFDCITISFCLRNVTDKDKALRSMFRVLKPGGRLLVLEFSKPILEPLSKLYDTYSFHILPKMGQLIANDADSYRYLAESIRMHPDQETLKGMMEEAGFEQTTYYNLTGGIVALHRGYKFLEHHHHHH”, the protein production was “not failed”. In the case of “MTDTQNRVAMGYIKGVFGIKGWLKIAANTEYSDSLLDYPEWHLVKDGKTISVTLEAGKVVNGELQVKFEGINDRDLAFSLRGYTIEIPREAFAPTEEDEYYWTDLVGMTVVNKDHTVLGKVSNLMETGANDVLMIDGEHGQILIPFVSQYIETVDTGSKTITADWGLDYLEHHHHHH”, the protein production is reported as “not failed”. In the case of “MTEAGASIVVTVKNEGKNLRELLESIEKNDFTNFETVVVDDLSTDDTEDIVKSYRFTVYKRIACSRGEGRNIGVDLSRYGYILFTDGDAKVSEHWISGMVSALAAGNDAVIGNTLYTGKRRYMQERVKIFLEGIEVTAPSVNLAYRKDRFRQLGGFDPKFVTAEDIDLNIRAVKAGFRFATCDSCVVYAKVRENLASFLRQAYWNGYGRYQLEMKHPGITRNTRVRLGHNFFDFLHMVSGAAGYLSARISEGKQGRLEHHHHHH”, the protein production is reported as “not failed”. In the case of “MTEDQAFWNAFAPDYAAAEQASRLPIAHDVIAWLRSTQLLPAHSAVDLAAGTGRYAVQMMPWVQELTLIDWSSAMLAFAKERMHQQADTKAQFIVADWRKLHKPLNADMLFVSQLPTLKPQDLKMLMNWASQTVVLNFQTAQSDALLEQAASLLGLQLPPVYQADPARMISFKVWLTAQRIPFQSHSLTYEIEEQTTLSDLLPDLATPIGLKTAASLAKAITGHENTHVQVTDRLTYTYTQLVWHVLEHHHHHH”, the protein production is reported as “failed”. For “MTEEAAAQQTPVPGMTGPRRAAVGFIFITIALDMLSLGMILPILPKLIESFSDDNTANAARIYGLFGTAWALMQLFASPILGGLSDRFGRRPVILLSNLGLGLDYVLMALAPSLWWLFVGRVISGITSASISTSFAYIADVTPAEKRAAVFGMVGAAFGLGFTFGPAIGGLLGGVDPRLPFWVAAALSLANTLYGLFVLPESLPRDRRSPFRWKSANPIGAVRLLSSNARLAALAVVEFCAEVAHVALPATFVLYTGYRYAWDQTTIGLALAFVGVCTTIVQGGLVGPAVKLLGERNAQIIGYGGGALGFLIYALAPSGTLFWIGIPVMTLWGIAGPATSGMMTRLVSPSQQGQLQGATTSVKSVAELIGPFLFTMIFAYFIDAGAPLQLPGAPFLLAGALLVVSVVIVAFASPAADSKQAPQAAPES”, the protein production was “failed”. For “MTEFALDTSTGITIIVLFGVFWVAFGYWLGRKNRSHEDFALAGRNVGFAFAAATAMATWVTSNTTLVAPQLTYQFGIWGMVGYSFAALGLVLFAPMAKRIKELLPNGYTSGDFVRLRYGNLAWLVFIIISVVYAFGWLISLGMAGGILLESLSGLDYHIGMTTILVICVGYTLFGGMRAVIATDFIQALIIIVGVSFIAYWIIDNVGLESIHSNLTSEHPQLLDMLFPAAVMFLFNNIFFGLGEIFHSNVWWSRALSFKKNVAYKAYLTGGLLWLPIPIVTGFIALAAPQLGIFPPSPDMIGPTVAAAVLGKAGAIIVFIVIFSALASSLDSLLAATSDLVTQDIFHKKLKPKASDKTLMRFNRSCILGLGVVTWLLCLPRVATLGALLNFAGAFVASTIWPIVLGLYHRRLTGTYAACAMGFGTAFGMLSYFVVGFYVAALVSCAVSGLICLVGIFRSSDKFDWDTLNEKEQSNANQ”, the protein production was “failed”. With “MTEILPHVNDEVLPAEYELNQPEPEHCPGPESDMAGKSDACGGCANKEICESLPKGPDPDIPLITDNLSGIEHKILVLSGKGGVGKSTFAAMLSWALSADEDLQVGAMDLDICGPSLPHMLGCIKETVHESNSGWTPVYVTDNLATMSIQYMLPEDDSAIIWRGSKKNLLIKKFLKDVDWDKLDYLVIDTPPGTSDEHISINKYMRESGIDGALVVTTPQEVALLDVRKEIDFCKKAGINILGLVENMSGFVCPNCKGESQIFKATTGGGEALCKELGIKFLGSVPLDPRIGKSCDMGESFLDNYPDSPASSAVLNVVEALRDAVGDV” the protein production was “failed”. For “MTEIQRLLSETIDDLNIREKRDNRPRFSISFIRKHPGLFIAMYAAWFATLAVMLQSETLVGSVWLLVVLFIAFNGFFFFDIAPRYHYNDIDVLDLRVCYNGEWYNTRFVPPTLIETILQSPQVDNEHKVQLQKMVARKGELSFYDIFTLARAEASR”, the protein production was “failed”. For “MTEISYEAIAFEQSGPITRITLNRPDAANGMNDTMTRELADAARRADTSGAKVVVLTGSGRFFSAGGDLKAFSTAPSRGAFIKGVADDLHRAISSFARMDAVLITAVNGTAAGAGFSIAVTGDLVLAAESASFTMAYTKVGLSPDGSASYYLPRLVGMRRAQELMLTNRTLSATEAYEWGLVTEVVPDADLADRATKLAEQVAAGSAGSNGAVKSLLLSSLKNSLEEQMEAEGRFIAARADSADGREGVDAFLGKRRPEFA”, the protein production was “failed”. In the case of “MTEKKIDFKKEEKKFYAPKRKPERIFVPEMNFLMVDGKGDPDGEEYQKAVQSLYAIAYTIKMSKMGETRLDGYSDFVVPPLEGFWWSEGKFDLKDRDAWLWTSILRQPDFVTEEVLEWAKEVARKKKPDVDTSRVKLVRFEEGECVQMMHVGPFSEEVHTVAEMHQFMETEGLRNDTGAIRKHHEIYLSDPRKANPEKMKTILRLPVS”, the protein production is reported as “not failed”. In the case of “MTEKLIEQLEARINDLECQVAFQEQTIEDLNSALSQQQLQITKMQDQMKYVVGKVKNMDSSNMEDPANEPPPPHY”, the protein production is reported as “failed”. For “MTEKNTLKKSATLAAAGLVVAGALLAGCGESKATPMDDAYAGNSGETEKSQEEQSQSQSNGSDSSDGSDSGSSHNDPSTTTSDKKDTGNYKDGNYSINGQYGPVGEDSIDVHLTIKDGNVETVKIIGHPFTTISKNHQDDFAKAINGVVDGKPLKGLKVDKVAGASWTSDAFNKALEVARQEASIQE”, the protein production was “failed”. With “MTEKSQEPTAALDAEQVAAYLSQHPEFFVEHDELIPELRIPHQPGDAVSLVERQVRLLRERNIEMRHRLSQLMDVARENDRLFDKTRRLVLDLLDATSLEDVVSTVEDSLRHEFQVPYVSLILFSDSSVSVGRSVSSAEAHQAIGGLLSGGKTVCGVLRPHELAFLFGESDRDEIGSAAVVSLSFQGLHGVLAIGSPDPQHYKSSLGTLFLGYVAEVLARVLPRFSSPLRSVR” the protein production was “not failed”.
